B1: recombinant mouse TREM-1-Fc Chimera, Q9JKE2 21-202 (Fc fusion)
chain: AIVLEEERYDLVEGQTLTVKCPFNIMKYANSQKAWQRLPDGKEPLTLVVTQRPFTRPSEVHMGKFTLKHDPSEAMLQVQMTDLQVTDSGLYRCVIYHPPNDPVVLFHPVRLVVTKGSSDVFTPVIIPITRLTERPILITTKYSPSDTTTTRSLPKPTAVVSSPGLGVTIINGTDADSVSTSS
B2: recombinant murine cold-inducible RNA-binding protein, His-tagged (rmCIRP-his) (natural protein, mouse, UniProt P60824 1-172, looked up)
chain: MASDEGKLFVGGLSFDTNEQALEQVFSKYGQISEVVVVKDRETQRSRGFGFVTFENIDDAKDAMMAMNGKSVDGRQIRVDQAGKSSDNRSRGYRGGSAGGRGFFRGGRSRGRGFSRGGGDRGYGGGRFESRSGGYGGSRDYYASRSQGGSYGYRSSGGSYRDSYDSYATHNE

Test [1] deals with B2. Nature of the test: SPR.
Test [2] deals with T1, recombinant mouse TREM-1-Fc Chimera (mouse, UniProt Q9JKE2 21-202).
T1 sequence (looked up): B1 chain
Nature of the test: SPR.

Test [3] addresses T2, recombinant murine cold-inducible RNA-binding protein, His-tagged (rmCIRP-his) (mouse), P60824.
T2 chain: B2 chain
Nature of the test: SPR. To be noted: remark: other sources report otherwise.

The target in test [4] is T3, triggering receptor expressed on myeloid cells-1 (TREM-1) on RAW264.7 macrophages (mouse (endogenous in RAW264.7), UniProt Q9JKE2 21-230).
T3 sequence (looked up): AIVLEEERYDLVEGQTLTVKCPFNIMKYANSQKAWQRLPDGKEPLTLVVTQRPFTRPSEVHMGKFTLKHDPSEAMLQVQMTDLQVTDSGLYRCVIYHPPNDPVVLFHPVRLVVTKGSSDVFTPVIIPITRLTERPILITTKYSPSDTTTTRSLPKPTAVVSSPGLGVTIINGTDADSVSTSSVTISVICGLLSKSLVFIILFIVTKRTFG
Nature of the test: FRET or BRET. In general terms: Bioluminescence resonance energy transfer reports proximity on the nanometre scale.

Results on four molecules are retold here after doi:10.1101/674218 (bioRxiv, 2019).

In general, Kd refers to the constant that tells how readily two partners part at equilibrium. Consider LQVTDSGLYRCVIYHPP [LP17, 17 amino acid peptide taken from TREM-1], for which the Kd in test [1] is 48 µM.

With RGFFRGG [M3, 7-aa peptide derived from CIRP], the Kd in test [2] was found to be 35.2 µM.

With B1, the equilibrium dissociation constant (Kd) in test [3] is 0.117 µM.

Turning to B2, the “fold increase in FRET units over the negative control CD11b” value in test [4] is around 7 fold.
